For experiment [1], the target named is extracellular domain of CD47 fused to a His(×6)-Avi-tag (human). The experiment is described as follows: ELISA; pH 6.6. In general terms: ELISA stands for enzyme-linked immunosorbent assay.
Experiment [2] shares this target. The experiment is described as follows: ELISA; pH 7.6.
Experiment [3] has the same target. Kind of experiment: ELISA; pH 6.4.
Experiment [4] shares this target. The experiment is described as follows: ELISA; pH 6.2.
Experiment [5] has the same target. The experiment is described as follows: ELISA; pH 7.2.
The target is the same in experiment [6]. Kind of experiment: ELISA; pH 7.0.
The target is the same in experiment [7]. The experiment is described as follows: ELISA; pH 6.8.
The target is the same in experiment [8]. Kind of experiment: ELISA; pH 7.4.

Among the data in publication PMC9844003 are EC50 values, retold here.

The EC50 is the concentration that produces a half-maximal response.

Sequence of extracellular domain of CD47 fused to a His(×6)-Avi-tag (human) (Q08722 19-141): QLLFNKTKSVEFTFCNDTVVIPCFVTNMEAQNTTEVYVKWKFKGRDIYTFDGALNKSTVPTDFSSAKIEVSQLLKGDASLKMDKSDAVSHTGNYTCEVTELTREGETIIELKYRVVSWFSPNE

In the case of Hu5F9, the EC50 in experiment [1] was determined as 40 pM; in experiment [2], 40 pM; in experiment [3], 40 pM; in experiment [4], 40 pM; in experiment [5], 30 pM; in experiment [6], 40 pM. Moreover, the values for the EC50 in experiment [7] and in experiment [8] were 30 pM and 40 pM, respectively.
